T1: CARD11, Q9BXL7
T1 sequence (Q9BXL7 662-765, limits assumed, looked up): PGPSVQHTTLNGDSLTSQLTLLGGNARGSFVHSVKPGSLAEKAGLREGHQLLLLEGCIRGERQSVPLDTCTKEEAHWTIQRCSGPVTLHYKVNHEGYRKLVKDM

T2: DLG3_2, Q92796
T2 sequence (Q92796 221-321, limits assumed, looked up): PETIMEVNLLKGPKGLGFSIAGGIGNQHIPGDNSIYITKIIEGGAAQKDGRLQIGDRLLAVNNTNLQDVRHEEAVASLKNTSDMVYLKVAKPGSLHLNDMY

T3: FRMPD1, Q5SYB0
T3 sequence (Q5SYB0 52-145, limits assumed, looked up): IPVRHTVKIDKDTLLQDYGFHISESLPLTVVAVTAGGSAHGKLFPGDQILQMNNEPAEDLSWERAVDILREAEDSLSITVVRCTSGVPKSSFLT

T4: GRIP1_4, Q9Y3R0
T4 sequence (Q9Y3R0 467-571, limits assumed, looked up): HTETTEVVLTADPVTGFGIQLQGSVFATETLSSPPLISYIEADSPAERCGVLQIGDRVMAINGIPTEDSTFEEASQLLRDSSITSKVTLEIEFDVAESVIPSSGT

T5: LIN7A, O14910
T5 sequence (O14910 103-200, limits assumed, looked up): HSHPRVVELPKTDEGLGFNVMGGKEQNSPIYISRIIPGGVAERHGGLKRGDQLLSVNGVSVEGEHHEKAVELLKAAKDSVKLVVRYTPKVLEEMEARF

T6: MPP6, Q9NZW5
T6 sequence (Q9NZW5 125-219, limits assumed, looked up): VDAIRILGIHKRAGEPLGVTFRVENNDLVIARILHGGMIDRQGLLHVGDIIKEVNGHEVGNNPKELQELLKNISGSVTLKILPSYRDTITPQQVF

T7: MPP7, Q5T2T1
T7 sequence (Q5T2T1 134-230, limits assumed, looked up): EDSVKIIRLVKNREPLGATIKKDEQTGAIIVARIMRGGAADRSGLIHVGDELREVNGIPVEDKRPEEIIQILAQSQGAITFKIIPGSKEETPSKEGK

T8: RAPGEF6, Q8TEU7
T8 sequence (Q8TEU7 525-625, limits assumed, looked up): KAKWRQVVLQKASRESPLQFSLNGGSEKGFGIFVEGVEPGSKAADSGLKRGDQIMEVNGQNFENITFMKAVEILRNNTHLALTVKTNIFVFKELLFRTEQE

T9: SNTG1, Q9NSN8
T9 sequence (Q9NSN8 52-150, limits assumed, looked up): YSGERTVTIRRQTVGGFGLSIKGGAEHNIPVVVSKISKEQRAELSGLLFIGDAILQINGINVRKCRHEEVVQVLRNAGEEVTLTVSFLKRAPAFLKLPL


Tests used:
Test in all cases: holdup assay
Design in all cases: key: below the threshold = too weak to quantify, mostly under pKd 3.1 to 4
Details in all cases: plain residues with an end cap or a label only (N-terminal biotin on a linker: ado-ado)
AHNAK1, Q09666 = target: AHNAK1, Q09666
CARD11, Q9BXL7 = target: T1, CARD11, Q9BXL7
DLG1_2, Q12959 = target: DLG1_2, Q12959
DLG3_2, Q92796 = target: T2, DLG3_2, Q92796
FRMPD1, Q5SYB0 = target: T3, FRMPD1, Q5SYB0
FRMPD2_3, Q68DX3 = target: FRMPD2_3, Q68DX3
GRIP1_4, Q9Y3R0 = target: T4, GRIP1_4, Q9Y3R0
GRIP2_4, Q9C0E4 = target: GRIP2_4, Q9C0E4
GRIP2_5, Q9C0E4 = target: GRIP2_5, Q9C0E4
GRIP2_6, Q9C0E4 = target: GRIP2_6, Q9C0E4
HTRA1, Q92743 = target: HTRA1, Q92743
HTRA2, O43464 = target: HTRA2, O43464
IL16_3, Q14005 = target: IL16_3, Q14005
IL16_4, Q14005 = target: IL16_4, Q14005
Inadl_9, Q8NI35 = target: Inadl_9, Q8NI35
LDB3, O75112 = target: LDB3, O75112
LIMK2, P53671 = target: LIMK2, P53671
LIN7A, O14910 = target: T5, LIN7A, O14910
LNX1_1, Q8TBB1 = target: LNX1_1, Q8TBB1
LNX1_3, Q8TBB1 = target: LNX1_3, Q8TBB1
MAGI1_1, Q96QZ7 = target: MAGI1_1, Q96QZ7
MAGI1_2, Q96QZ7 = target: MAGI1_2, Q96QZ7
MAST1, Q9Y2H9 = target: MAST1, Q9Y2H9
MPP6, Q9NZW5 = target: T6, MPP6, Q9NZW5
MPP7, Q5T2T1 = target: T7, MPP7, Q5T2T1
NHERF4_4, Q86UT5 = target: NHERF4_4, Q86UT5
PDZRN4_1, Q6ZMN7 = target: PDZRN4_1, Q6ZMN7
RAPGEF6, Q8TEU7 = target: T8, RAPGEF6, Q8TEU7
SNTG1, Q9NSN8 = target: T9, SNTG1, Q9NSN8

Sequence of HTRA2, O43464 (O43464 355-458): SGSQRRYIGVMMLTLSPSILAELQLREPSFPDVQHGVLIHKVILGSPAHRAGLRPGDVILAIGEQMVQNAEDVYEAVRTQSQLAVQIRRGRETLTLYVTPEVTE
Sequence of MAST1, Q9Y2H9 (Q9Y2H9 962-1065): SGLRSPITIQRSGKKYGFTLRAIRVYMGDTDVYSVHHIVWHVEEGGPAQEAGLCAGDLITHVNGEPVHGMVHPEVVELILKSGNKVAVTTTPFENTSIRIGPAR
Sequence of NHERF4_4, Q86UT5 (Q86UT5 464-550): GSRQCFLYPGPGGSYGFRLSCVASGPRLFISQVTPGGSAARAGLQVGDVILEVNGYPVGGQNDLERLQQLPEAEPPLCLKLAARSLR
Sequence of GRIP2_6, Q9C0E4 (Q9C0E4 648-740): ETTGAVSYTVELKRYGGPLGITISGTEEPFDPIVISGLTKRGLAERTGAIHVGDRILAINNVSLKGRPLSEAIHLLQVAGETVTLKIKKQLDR
Sequence of FRMPD2_3, Q68DX3 (Q68DX3 1073-1166): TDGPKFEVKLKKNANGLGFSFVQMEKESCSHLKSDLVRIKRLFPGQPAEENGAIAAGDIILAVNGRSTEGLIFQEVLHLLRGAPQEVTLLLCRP
Sequence of LIMK2, P53671 (P53671 143-248): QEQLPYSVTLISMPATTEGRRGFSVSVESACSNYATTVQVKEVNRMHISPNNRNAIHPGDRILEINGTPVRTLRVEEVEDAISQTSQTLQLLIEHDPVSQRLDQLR
Sequence of LNX1_1, Q8TBB1 (Q8TBB1 261-371): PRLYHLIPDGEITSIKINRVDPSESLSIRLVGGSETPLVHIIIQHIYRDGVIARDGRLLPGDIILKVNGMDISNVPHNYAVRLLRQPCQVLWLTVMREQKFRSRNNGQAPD
Sequence of MAGI1_1, Q96QZ7 (Q96QZ7 1-106): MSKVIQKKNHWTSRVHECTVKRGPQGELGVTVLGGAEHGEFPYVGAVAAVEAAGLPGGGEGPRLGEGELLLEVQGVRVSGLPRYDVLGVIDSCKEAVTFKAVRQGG
Sequence of IL16_3, Q14005 (Q14005 1107-1207): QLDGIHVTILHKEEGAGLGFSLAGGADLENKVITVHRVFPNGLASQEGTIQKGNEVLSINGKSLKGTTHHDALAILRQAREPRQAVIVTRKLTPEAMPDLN
Sequence of LDB3, O75112 (O75112 1-94): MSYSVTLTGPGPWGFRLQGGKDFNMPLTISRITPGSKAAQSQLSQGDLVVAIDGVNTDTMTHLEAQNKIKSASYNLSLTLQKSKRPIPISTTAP
Sequence of GRIP2_5, Q9C0E4 (Q9C0E4 544-642): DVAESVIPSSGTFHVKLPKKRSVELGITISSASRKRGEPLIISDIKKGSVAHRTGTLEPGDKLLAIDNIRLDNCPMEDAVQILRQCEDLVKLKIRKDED
Sequence of PDZRN4_1, Q6ZMN7 (Q6ZMN7 213-318): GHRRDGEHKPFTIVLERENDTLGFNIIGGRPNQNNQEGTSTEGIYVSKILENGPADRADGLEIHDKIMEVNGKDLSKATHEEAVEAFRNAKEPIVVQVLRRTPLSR
Sequence of IL16_4, Q14005 (Q14005 1229-1329): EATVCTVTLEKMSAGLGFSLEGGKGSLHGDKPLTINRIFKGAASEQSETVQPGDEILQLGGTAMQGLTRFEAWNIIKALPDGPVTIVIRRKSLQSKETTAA
Sequence of HTRA1, Q92743 (Q92743 360-477): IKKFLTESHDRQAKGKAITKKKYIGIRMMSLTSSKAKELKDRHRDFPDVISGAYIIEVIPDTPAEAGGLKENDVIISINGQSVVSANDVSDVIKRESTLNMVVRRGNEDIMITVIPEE
Sequence of MAGI1_2, Q96QZ7 (Q96QZ7 456-580): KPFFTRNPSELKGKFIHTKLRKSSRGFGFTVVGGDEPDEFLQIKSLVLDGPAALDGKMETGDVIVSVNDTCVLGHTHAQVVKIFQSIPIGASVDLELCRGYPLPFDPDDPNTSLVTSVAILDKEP
Sequence of LNX1_3, Q8TBB1 (Q8TBB1 500-596): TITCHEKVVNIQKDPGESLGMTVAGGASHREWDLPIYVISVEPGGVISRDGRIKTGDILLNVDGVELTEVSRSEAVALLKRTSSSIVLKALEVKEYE
Sequence of Inadl_9, Q8NI35 (Q8NI35 1530-1615): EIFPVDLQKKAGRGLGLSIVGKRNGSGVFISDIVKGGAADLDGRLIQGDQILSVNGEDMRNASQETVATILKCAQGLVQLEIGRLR
Sequence of AHNAK1, Q09666 (Q09666 4-100): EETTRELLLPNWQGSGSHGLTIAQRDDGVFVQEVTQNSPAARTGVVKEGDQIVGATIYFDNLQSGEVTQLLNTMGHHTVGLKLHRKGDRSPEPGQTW
Sequence of GRIP2_4, Q9C0E4 (Q9C0E4 446-548): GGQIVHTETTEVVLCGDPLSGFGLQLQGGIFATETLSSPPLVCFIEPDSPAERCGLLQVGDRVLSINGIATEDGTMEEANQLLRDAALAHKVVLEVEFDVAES
Sequence of DLG1_2, Q12959 (Q12959 314-412): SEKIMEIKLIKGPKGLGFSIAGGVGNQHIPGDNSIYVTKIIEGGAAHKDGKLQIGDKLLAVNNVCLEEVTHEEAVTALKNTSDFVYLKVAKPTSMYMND

pKd (AHNAK1, Q09666)	pKd (CARD11, Q9BXL7)	pKd (DLG1_2, Q12959)	pKd (DLG3_2, Q92796)	pKd (FRMPD1, Q5SYB0)	pKd (FRMPD2_3, Q68DX3)	pKd (GRIP1_4, Q9Y3R0)	pKd (GRIP2_4, Q9C0E4)	pKd (GRIP2_5, Q9C0E4)	pKd (GRIP2_6, Q9C0E4)	pKd (HTRA1, Q92743)	pKd (HTRA2, O43464)	pKd (IL16_3, Q14005)	pKd (IL16_4, Q14005)	pKd (Inadl_9, Q8NI35)	pKd (LDB3, O75112)	pKd (LIMK2, P53671)	pKd (LIN7A, O14910)	pKd (LNX1_1, Q8TBB1)	pKd (LNX1_3, Q8TBB1)	Binder	other results
below the threshold	below the threshold	3.49	below the threshold	below the threshold	4.28	below the threshold	below the threshold	below the threshold	below the threshold	4.4	4.48	below the threshold	below the threshold	below the threshold	below the threshold	below the threshold	below the threshold	3.94	below the threshold	FNSYSLTGYV [CLDN2, P57739]	pKd (MAGI1_1, Q96QZ7): below the threshold; pKd (MAGI1_2, Q96QZ7): below the threshold; pKd (MAST1, Q9Y2H9): 3.94; pKd (MPP6, Q9NZW5): below the threshold; pKd (MPP7, Q5T2T1): below the threshold; pKd (NHERF4_4, Q86UT5): 3.99; pKd (PDZRN4_1, Q6ZMN7): 3.49; pKd (RAPGEF6, Q8TEU7): below the threshold; pKd (SNTG1, Q9NSN8): below the threshold
below the threshold	below the threshold	below the threshold	4.17	below the threshold	below the threshold	below the threshold	below the threshold	below the threshold	below the threshold	below the threshold	below the threshold	below the threshold	below the threshold	below the threshold	3.6	below the threshold	below the threshold	below the threshold	below the threshold	VKPQVSESKL [ACOT8, O14734]	pKd (MAGI1_1, Q96QZ7): below the threshold; pKd (MAGI1_2, Q96QZ7): below the threshold; pKd (MAST1, Q9Y2H9): 4.77; pKd (MPP6, Q9NZW5): below the threshold; pKd (MPP7, Q5T2T1): below the threshold; pKd (NHERF4_4, Q86UT5): below the threshold; pKd (PDZRN4_1, Q6ZMN7): 3.83; pKd (RAPGEF6, Q8TEU7): below the threshold; pKd (SNTG1, Q9NSN8): below the threshold
below the threshold	below the threshold	3.57	below the threshold	below the threshold	3.51	below the threshold	below the threshold	below the threshold	below the threshold	4.27	below the threshold	3.5	below the threshold	below the threshold	3.67	below the threshold	3.56	3.83	below the threshold	PRAEAEDSFL [PDGFRB, P09619]	pKd (MAGI1_1, Q96QZ7): 3.58; pKd (MAGI1_2, Q96QZ7): below the threshold; pKd (MAST1, Q9Y2H9): 3.93; pKd (MPP6, Q9NZW5): 3.93; pKd (MPP7, Q5T2T1): below the threshold; pKd (NHERF4_4, Q86UT5): 4.03; pKd (PDZRN4_1, Q6ZMN7): 3.69; pKd (RAPGEF6, Q8TEU7): below the threshold; pKd (SNTG1, Q9NSN8): below the threshold

— publication PMC9482650, “Quantitative fragmentomics allow affinity mapping of interactomes” (Nature Communications, 2022)
